Test results published in patent US20250320292A1 (PANDION OPERATIONS, published 2025).
One block for each binder: values may come before it.

Legend:
recROBO2 = experiment: cell-based or functional assay
Mouse Robo2 [1] = target: T1, Mouse Robo2 (mouse, UniProt Q7TPD3 22-863, limits assumed); experiment: BLI (Octet RED96); CDAB1 captured on anti-human Fc biosensor, mouse Robo2 titrated two-fold from 50 nM
T1 construct: also called mRobo2
T1 sequence: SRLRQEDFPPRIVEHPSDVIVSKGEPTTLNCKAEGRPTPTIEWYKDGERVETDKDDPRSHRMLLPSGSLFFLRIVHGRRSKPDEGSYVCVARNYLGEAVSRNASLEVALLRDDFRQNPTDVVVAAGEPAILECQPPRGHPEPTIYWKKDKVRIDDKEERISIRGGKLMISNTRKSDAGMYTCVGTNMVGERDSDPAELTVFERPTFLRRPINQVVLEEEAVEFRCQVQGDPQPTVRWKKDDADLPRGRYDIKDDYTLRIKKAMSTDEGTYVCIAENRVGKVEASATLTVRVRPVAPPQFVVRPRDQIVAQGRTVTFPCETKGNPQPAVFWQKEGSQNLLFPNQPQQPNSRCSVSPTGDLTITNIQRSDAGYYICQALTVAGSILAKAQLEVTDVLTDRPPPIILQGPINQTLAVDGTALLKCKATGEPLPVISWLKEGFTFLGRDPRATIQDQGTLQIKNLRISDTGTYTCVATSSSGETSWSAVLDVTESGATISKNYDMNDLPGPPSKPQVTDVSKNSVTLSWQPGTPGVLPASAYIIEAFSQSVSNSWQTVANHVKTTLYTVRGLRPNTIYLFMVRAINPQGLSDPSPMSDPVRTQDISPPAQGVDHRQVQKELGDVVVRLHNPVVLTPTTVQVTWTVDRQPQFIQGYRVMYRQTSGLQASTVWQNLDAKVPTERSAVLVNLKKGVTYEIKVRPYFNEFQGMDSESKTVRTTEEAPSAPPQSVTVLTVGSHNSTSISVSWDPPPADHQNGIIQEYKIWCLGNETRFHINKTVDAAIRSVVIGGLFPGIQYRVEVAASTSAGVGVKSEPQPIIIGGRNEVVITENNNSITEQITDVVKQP
Method: (§1) Anti-human Fc (for CDAB1, CDAB5, Fc-rat COL4A3) or anti-Streptavidin (for CDAB3) or HIS1K (COL4A3-His) biosensors were equilibrated in assay buffer (1% BSA in 1×PBS with 0.05% Tween-20) for 10 minutes before the experiment was setup. Immobilizing reagents were diluted to 4 μg/mL in assay buffer and 200 μL pipetted to 96 well plate. Mouse Robo2 or TAs were titrated down, two-fold dilutions (starting at 50 nM as the highest concentration, 7-point dilution). The experiment was conducted using data acquisition software version 10.0 for OCTET96 RED. Test articles were captured using anti-human Fc biosensors for 180 s. Biosensors loaded with test articles were then equilibrated in assay buffer for 120 s. Association was performed in wells with mRobo2 or TA for 180 seconds. Dissociation was performed in wells with assay buffer for 180 s.

Mouse Robo2 [2] = target: T1, Mouse Robo2; experiment: BLI (Octet RED96); CDAB3 on anti-Streptavidin biosensor, mouse Robo2 titrated two-fold from 50 nM
Method: as §1

Mouse Robo2 [3] = target: T1, Mouse Robo2; experiment: BLI (Octet RED96); test article captured on biosensor (method names CDAB5 on anti-human Fc, result names CDAB6), mouse Robo2 titrated from 50 nM
Method: as §1

recROBO2, sequence (Q9HCK4 whole entry): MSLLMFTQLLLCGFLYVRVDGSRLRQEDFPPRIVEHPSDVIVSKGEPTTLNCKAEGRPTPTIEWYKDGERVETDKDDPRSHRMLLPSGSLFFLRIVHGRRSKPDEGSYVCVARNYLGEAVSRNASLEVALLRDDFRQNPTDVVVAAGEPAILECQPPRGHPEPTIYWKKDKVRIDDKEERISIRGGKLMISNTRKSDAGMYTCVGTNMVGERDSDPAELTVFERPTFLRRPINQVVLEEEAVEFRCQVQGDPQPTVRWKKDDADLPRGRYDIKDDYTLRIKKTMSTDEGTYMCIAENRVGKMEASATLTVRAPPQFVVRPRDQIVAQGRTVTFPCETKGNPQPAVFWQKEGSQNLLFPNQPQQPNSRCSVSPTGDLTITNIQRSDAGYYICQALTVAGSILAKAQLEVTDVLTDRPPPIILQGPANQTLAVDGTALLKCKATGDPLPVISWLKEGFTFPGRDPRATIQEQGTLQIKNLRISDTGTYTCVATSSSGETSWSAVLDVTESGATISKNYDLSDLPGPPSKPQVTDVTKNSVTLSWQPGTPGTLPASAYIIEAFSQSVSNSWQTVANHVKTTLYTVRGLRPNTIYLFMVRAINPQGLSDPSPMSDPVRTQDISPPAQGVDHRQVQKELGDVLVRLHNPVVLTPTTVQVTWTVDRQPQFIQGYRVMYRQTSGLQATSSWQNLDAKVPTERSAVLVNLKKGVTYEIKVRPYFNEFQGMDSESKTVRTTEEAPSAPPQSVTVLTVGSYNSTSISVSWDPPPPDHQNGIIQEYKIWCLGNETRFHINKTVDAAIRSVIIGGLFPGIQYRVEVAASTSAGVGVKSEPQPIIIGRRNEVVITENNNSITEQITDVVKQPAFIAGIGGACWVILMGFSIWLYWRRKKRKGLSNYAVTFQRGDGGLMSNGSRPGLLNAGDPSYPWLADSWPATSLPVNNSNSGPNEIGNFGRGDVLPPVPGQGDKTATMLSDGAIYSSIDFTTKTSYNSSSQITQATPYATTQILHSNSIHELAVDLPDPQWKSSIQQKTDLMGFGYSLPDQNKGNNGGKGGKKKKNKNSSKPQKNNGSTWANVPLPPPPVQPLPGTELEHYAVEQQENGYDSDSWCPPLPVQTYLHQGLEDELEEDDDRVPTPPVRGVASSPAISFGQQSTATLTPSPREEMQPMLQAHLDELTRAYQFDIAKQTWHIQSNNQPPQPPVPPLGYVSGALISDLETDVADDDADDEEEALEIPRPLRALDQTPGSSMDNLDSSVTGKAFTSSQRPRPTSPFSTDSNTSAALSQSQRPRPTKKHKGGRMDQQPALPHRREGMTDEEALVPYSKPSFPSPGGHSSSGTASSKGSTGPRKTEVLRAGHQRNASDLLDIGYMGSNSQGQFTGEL

- tethered IC50(nM), inhibition of C5b-9a deposition (Hycult classical complement mouse assay, tethered format) (recROBO2): 1.5 nM
- Kd (Mouse Robo2 [1]): 1.38 nM
- koff (Mouse Robo2 [1]): 0.00129 s⁻¹
- kon (Mouse Robo2 [1]): 938000 M⁻¹ s⁻¹
B1: CDAB1 (antibody, human IgG1, kappa)
heavy: EVQLVQSGAEVKKPGASVKVSCKASGYTFTGYYMHWVRQAPGQGLEWMGWINPKNGDTEFPQKFQGRVTMTRDTSITTAYMDLSRLRSDDTAVYYCARESGDDAFDIWGQGTMVTVSSASTKGPSVFPLAPSSKSTSGGTAALGCLVKDYFPEPVTVSWNSGALTSGVHTFPAVLQSSGLYSLSSVVTVPSSSLGTQTYICNVNHKPSNTKVDKKVEPKSCDKTHTCPPCPAPEAAGAPSVFLFPPKPKDTLMISRTPEVTCVVVDVSHEDPEVKFNWYVDGVEVHNAKTKPREEQYNSTYRVVSVLTVLHQDWLNGKEYKCKVSNKALPAPIEKTISKAKGQPREPQVYTLPPSREEMTKNQVSLTCLVKGFYPSDIAVEWESNGQPENNYKTTPPVLDSDGSFFLYSKLTVDKSRWQQGNVFSCSVMHEALHNHYTQKSLSLSPGGGGGSDCGPPPDIPNARPILGRHSKFAEQSKVAYSCNNGFKQVPDKSNIVVCLENGQWSSHETFCEKSCVAPERLSFASLKKEYLNMNFFPVGTIVEYECRPGFRKQPPLPGKATCLEDLVWSPVAQFCKKKSCPNPKDLDNGHINIPTGILFGSEINFSCNPGYRLVGVSSTFCSVTGNTVDWDDEFPVCTEIHCPEPPKINNGIMRGESDSYTYSQVVTYSCDKGFILVGNASIYCTVSKSDVGQWSSPPPRCIEKSKVPTKKPTINVPSTGTPSTPQKPTTESVPNPGDQPTPQKPSTVKVSATQHVPVTKTTVRHPIRTSTDKGEPNTG
light: DIVMTQSPSSLSASVGDRVTITCRASQSISSYLNWYQQKPGKAPKLLIYAASSLQSGVPSRFSGSGSGTDFTLTISSLQPEDFATYYCQQSVGLFFGGGTKVEIKRTVAAPSVFIFPPSDEQLKSGTASVVCLLNNFYPREAKVQWKVDNALQSGNSQESVTEQDSKDSTYSLSSTLTLSKADYEKHKVYACEVTHQGLSSPVTKSFNRGEC
notes: Anti-ROBO2 tether in IgG1 format with mouse CD55 ECD fused to the C-terminus of the heavy chain; also called CDAB1-HC; CDAB1-LC

- Kd (Mouse Robo2 [2]): 13.2 nM
- koff (Mouse Robo2 [2]): 0.00291 s⁻¹
- kon (Mouse Robo2 [2]): 221000 M⁻¹ s⁻¹
B2: CDAB3 (scFv)
chain: DCGPPPDIPNARPILGRHSKFAEQSKVAYSCNNGFKQVPDKSNIVVCLENGQWSSHETFCEKSCVAPERLSFASLKKEYLNMNFFPVGTIVEYECRPGFRKQPPLPGKATCLEDLVWSPVAQFCKKKSCPNPKDLDNGHINIPTGILFGSEINFSCNPGYRLVGVSSTFCSVTGNTVDWDDEFPVCTEIHCPEPPKINNGIMRGESDSYTYSQVVTYSCDKGFILVGNASIYCTVSKSDVGQWSSPPPRCIEKSKVPTKKPTINVPSTGTPSTPQKPTTESVPNPGDQPTPQKPSTVKVSATQHVPVTKTTVRHPIRTSTDKGEPNTGGGGGSGGGGSGGGGSGGGGSEVQLVQSGAEVKKPGASVKVSCKASGYTFTGYYMHWVRQAPGQGLEWMGWINPKNGDTEFPQKFQGRVTMTRDTSITTAYMDLSRLRSDDTAVYYCARESGDDAFDIWGQGTMVTVSSGGGGGSGGGGSGGGGSDIVMTQSPSSLSASVGDRVTITCRASQSISSYLNWYQQKPGKAPKLLIYAASSLQSGVPSRFSGSGSGTDFTLTISSLQPEDFATYYCQQSVGLFFGGGTKVEIKHHHHHH
notes: Fc-less construct with the same V domains as CDAB1; It was loaded on 'anti-Streptavidin' biosensors, and no biotinylation is described

- Kd (Mouse Robo2 [3]): 7.13 nM
- koff (Mouse Robo2 [3]): 0.00294 s⁻¹
- kon (Mouse Robo2 [3]): 412000 M⁻¹ s⁻¹
B3: CDAB6 (Fc fusion)
chain: DCGPPPDIPNARPILGRHSKFAEQSKVAYSCNNGFKQVPDKSNIVVCLENGQWSSHETFCEKSCVAPERLSFASLKKEYLNMNFFPVGTIVEYECRPGFRKQPPLPGKATCLEDLVWSPVAQFCKKKSCPNPKDLDNGHINIPTGILFGSEINFSCNPGYRLVGVSSTFCSVTGNTVDWDDEFPVCTEIHCPEPPKINNGIMRGESDSYTYSQVVTYSCDKGFILVGNASIYCTVSKSDVGQWSSPPPRCIEKSKVPTKKPTINVPSTGTPSTPQKPTTESVPNPGDQPTPQKPSTVKVSATQHVPVTKTTVRHPIRTSTDKGEPNTGGGGGSGGGGSGGGGSGGGGSDKTHTCPPCPAPEAAGAPSVFLFPPKPKDTLMISRTPEVTCVVVDVSHEDPEVKFNWYVDGVEVHNAKTKPREEQYNSTYRVVSVLTVLHQDWLNGKEYKCKVSNKALPAPIEKTISKAKGQPREPQVYTLPPSREEMTKNQVSLTCLVKGFYPSDIAVEWESNGQPENNYKTTPPVLDSDGSFFLYSKLTVDKSRWQQGNVFSCSVMHEALHNHYTQKSLSLSPGGGGGSGGGGSGGGGSGGGGSEVQLVQSGAEVKKPGASVKVSCKASGYTFTGYYMHWVRQAPGQGLEWMGWINPKNGDTEFPQKFQGRVTMTRDTSITTAYMDLSRLRSDDTAVYYCARESGDDAFDIWGQGTMVTVSSGGGGGSGGGGSGGGGSDIVMTQSPSSLSASVGDRVTITCRASQSISSYLNWYQQKPGKAPKLLIYAASSLQSGVPSRFSGSGSGTDFTLTISSLQPEDFATYYCQQSVGLFFGGGTKVEIK
notes: Same V domains as CDAB1
